Test system: HA-YY1
Assay: Co-IP of Flag-EZH2 wt/mutants with HA-YY1
Format: binding
Conditions: OPB domain of YY1 deleted
Description: HA-tagged expression vectors of wild-type (wt) and mutant YY1 were constructed by amplifying and subcloning the corresponding fragments of the YY1 coding region into the pcDNA3 vector. To generate EZH2 mutants, different regions of its coding sequence (1–251, 252–384, 385–618, 619–751, 385–465, 465–545, 545–618, 465–492, and 465–519) were amplified and subcloned into pGEX-4T-1 and pSL4-3×Flag plasmids to construct vectors expressing recombinant GST-EZH2 and 3×Flag-EZH2 mutants, respectively. To generate vectors expressing 3×Flag-YPB, -OPB, and -Cont (with a scrambled sequence of […]) peptides, their coding sequences were individually subcloned into a lentiviral vector pSL4 using the CMV promoter to drive the expression of 3×Flag-YPB-2A1-EGFP, 3×Flag-OPB-2A1-EGFP, and 3×Flag-Cont-2A1-EGFP. […]
Immunoprecipitations were performed as described previously. […] In Western blot studies, protein concentrations of samples were determined using the Bradford protein method, and 20 μg of proteins for each sample were separated by SDS-PAGE followed by transfer to polyvinylidene difluoride (PVDF) membranes. […]
Figure 1 Identification of YY1 binding site on EZH2 protein. […] The samples were analyzed by Western blot using EZH2 and YY1 antibodies as indicated. […]

binding of HA-YY1 (ΔOPB) to wt EZH2 in co-IP: did not show detectable binding affinity
B1: HA-YY1 (ΔOPB): YY1 mutant with the OPB domain deleted (protein)
chain: MASGDTLYIATDGSEMPAEIVELHEIEVETIPVETIETTVVGEEEEEDDDDEDGGGGDHGGGGGHGHAGHHHHHHHHHHHPPMIALQPLVTDDPTQVHHHQEVILVQTREEVVGGDDSDGLRAEDGFEDQILIPVPAPAGGDDDYIEQTLVTVAAAGKSGGGGSSSSGGGRVKKGGGKKSGKKSYLSGGAGAAGGGGADPDEKKDIDHETVVEEQIIGENSPPDYSEYMTGKKLPPGGIPGIDLSDPKQLAEFARMKPRKIKEDDAPRTIACPHKGCTKMFRDNSAMRKHLHTHGPRVHVCAECGKAFVESSKLKRHQLVHTGEKPFQCTFEGCGKRFSLDFNLRTHVRIHTGDRPYVCPFDGCNKKFAQSTNLKSHILTHAKAKNNQ
modifications: left off: HA, end not stated, kept

Source: publication PMC8156467, “Disruption of YY1-EZH2 Interaction Using Synthetic Peptides Inhibits Breast Cancer Development” (Cancers, 2021)
